Source: EP1899377B1 (GLAXO GROUP LIMITED, dated 2012)
Values belong to the binder of their own block, whether it stands above or below them.

Tests used:
GST-human NOGO-A56 [1] = target: T1, GST-human NOGO-A56 (human, UniProt Q9NQC3 586-785); assay: SPR (Biacore T100), reverse format: antibody captured on Protein A, human NOGO 5+6 GST as analyte, 1:1 model; mean (SD) of 5 or 6 runs
T1 construct: GST-tagged fusion expressed in E. coli BL21 from pGEX-6P1; also called hNOGO; human NOGO 5+6 GST; not shown: Glutathione S-transferase tag encoded by vector pGEX-6P1 (N-terminal, with vector linker)
T1 sequence: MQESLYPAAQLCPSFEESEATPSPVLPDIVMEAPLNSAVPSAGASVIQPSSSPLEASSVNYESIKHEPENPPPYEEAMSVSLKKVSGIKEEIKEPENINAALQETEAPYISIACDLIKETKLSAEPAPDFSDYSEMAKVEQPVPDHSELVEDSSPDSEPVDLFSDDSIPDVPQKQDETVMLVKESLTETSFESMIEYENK

GST-human NOGO-A56 [2] = target: T1, GST-human NOGO-A56; assay: SPR (Biacore), GST-human NOGO-A56 immobilised, purified antibody as analyte; mean (SD) of 12 runs
GST-human NOGO-A56 [3] = target: T1, GST-human NOGO-A56; assay: SPR (Biacore), GST-human NOGO-A56 immobilised, purified antibody as analyte; single experiment
GST-human NOGO-A56 [4] = target: T1, GST-human NOGO-A56; assay: SPR off-rate ranking, supernatant from small-scale transient transfection over immobilised GST-human NOGO-A56; single experiment
GST-human NOGO-A56 [5] = target: T1, GST-human NOGO-A56; assay: SPR (Biacore), GST-human NOGO-A56 immobilised, purified antibody as analyte; single experiment; remark: listed apart in the source
GST-human NOGO-A56 [6] = target: T1, GST-human NOGO-A56; assay: as above; remark: listed apart in the source
GST-human NOGO-A56 [7] = target: T1, GST-human NOGO-A56; assay: SPR (Biacore), GST-human NOGO-A56 immobilised, purified antibody as analyte; single experiment (value said to be not typical)

- Kd (GST-human NOGO-A56 [1]): 0.41 nM
- koff (GST-human NOGO-A56 [1]): 0.000569 s⁻¹
- kon (GST-human NOGO-A56 [1]): 1.38e+06 M⁻¹ s⁻¹
- Kd (GST-human NOGO-A56 [2]): 1.9 nM
- koff (GST-human NOGO-A56 [2]): 0.00754 s⁻¹
- kon (GST-human NOGO-A56 [2]): 3.92e+06 M⁻¹ s⁻¹
- Kd (GST-human NOGO-A56 [3]): 1.7 nM
- koff (GST-human NOGO-A56 [3]): 0.0044 s⁻¹
- kon (GST-human NOGO-A56 [3]): 2.6e+06 M⁻¹ s⁻¹
- koff (GST-human NOGO-A56 [4]): 0.00392 s⁻¹
- Kd (GST-human NOGO-A56 [5]): 1.42 nM
- koff (GST-human NOGO-A56 [5]): 0.0035 s⁻¹
- kon (GST-human NOGO-A56 [5]): 2.46e+06 M⁻¹ s⁻¹
- Kd (GST-human NOGO-A56 [6]): 1.59 nM
- koff (GST-human NOGO-A56 [6]): 0.00369 s⁻¹
- kon (GST-human NOGO-A56 [6]): 2.32e+06 M⁻¹ s⁻¹
B1: HcLc (antibody, human IgG1, kappa, V domains shown)
VH: QVQLQQPGTELVKPGASVKLSCKASGYTFTSYWMHWVKQRPGQGLEWIGNINPSNGGTNYNEKFKSKATLTVDKSSSTAYMQLSSLTSEDSAVYYCELGQGYWGQGTLVTVSS
VL: DIVITQDELSNPVTSGESVSISCRSSKSLLYKDGKTYLNWFLQRPGQSPQLLIYLMSTRASGVSDRFSGSGSGTDFTLEISRVKAEDVGVYYCQQLVEYPLTFGAGTKLELKR
notes: also called chimera of 2A10; 2A10 chimeric antibody

- Kd (GST-human NOGO-A56 [7]): 3.4 nM
- koff (GST-human NOGO-A56 [7]): 0.004 s⁻¹
- kon (GST-human NOGO-A56 [7]): 1.2e+06 M⁻¹ s⁻¹
- koff (GST-human NOGO-A56 [4]): 0.00577 s⁻¹
B2: H16L16 (antibody, human IgG1, kappa)
heavy: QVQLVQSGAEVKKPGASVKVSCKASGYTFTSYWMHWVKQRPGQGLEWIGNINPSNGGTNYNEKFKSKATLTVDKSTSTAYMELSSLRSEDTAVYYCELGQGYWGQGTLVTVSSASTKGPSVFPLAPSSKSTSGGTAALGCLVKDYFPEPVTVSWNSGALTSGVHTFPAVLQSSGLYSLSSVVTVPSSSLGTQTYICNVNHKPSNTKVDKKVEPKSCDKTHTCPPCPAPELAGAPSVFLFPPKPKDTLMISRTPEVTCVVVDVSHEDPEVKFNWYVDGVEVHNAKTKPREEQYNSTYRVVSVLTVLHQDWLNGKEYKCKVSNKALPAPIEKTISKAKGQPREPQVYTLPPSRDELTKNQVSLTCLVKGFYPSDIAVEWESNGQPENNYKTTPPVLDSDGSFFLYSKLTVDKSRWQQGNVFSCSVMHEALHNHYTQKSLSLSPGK
light: DIVMTQSPLSNPVTLGQPVSISCRSSKSLLYKDGKTYLNWFLQRPGQSPQLLIYLMSTRASGVPDRFSGGGSGTDFTLKISRVEAEDVGVYYCQQLVEYPLTFGQGTKLEIKRTVAAPSVFIFPPSDEQLKSGTASVVCLLNNFYPREAKVQWKVDNALQSGNSQESVTEQDSKDSTYSLSSTLTLSKADYEKHKVYACEVTHQGLSSPVTKSFNRGEC

- Kd (GST-human NOGO-A56 [1]): 0.31 nM
- koff (GST-human NOGO-A56 [1]): 0.000313 s⁻¹
- kon (GST-human NOGO-A56 [1]): 1.01e+06 M⁻¹ s⁻¹
- Kd (GST-human NOGO-A56 [2]): 1.86 nM
- koff (GST-human NOGO-A56 [2]): 0.0102 s⁻¹
- kon (GST-human NOGO-A56 [2]): 5.43e+06 M⁻¹ s⁻¹
- Kd (GST-human NOGO-A56 [3]): 1.7 nM
- koff (GST-human NOGO-A56 [3]): 0.0073 s⁻¹
- kon (GST-human NOGO-A56 [3]): 4.4e+06 M⁻¹ s⁻¹
- koff (GST-human NOGO-A56 [4]): 0.00718 s⁻¹
- Kd (GST-human NOGO-A56 [5]): 1.61 nM
- koff (GST-human NOGO-A56 [5]): 0.00847 s⁻¹
- kon (GST-human NOGO-A56 [5]): 5.24e+06 M⁻¹ s⁻¹
B3: H20L16 (antibody, human IgG1, kappa, V domains shown)
VH: QVQLVQSGAEVKKPGASVKVSCKASGYTFTSYWMHWVRQAPGQGLEWIGNINPSNGGTNYNEKFKSKATMTRDTSTSTAYMELSSLRSEDTAVYYCELGQGYWGQGTLVTVSS
VL: DIVMTQSPLSNPVTLGQPVSISCRSSKSLLYKDGKTYLNWFLQRPGQSPQLLIYLMSTRASGVPDRFSGGGSGTDFTLKISRVEAEDVGVYYCQQLVEYPLTFGQGTKLEIKR
notes: human gamma1 mutated constant region, human kappa; also called H20L16 FL
